From patent publication US20260250410A1, “ANTIBODY AND USE THEREOF” (SICHUAN HUIYU PHARMACEUTICAL CO., LTD., priority 2022, published 2026)

Assays:
MDA-MB-231 cells = assay: Endocytosis capacity of murine monoclonal antibody (flow cytometry internalization); assay type: cell-based, human; conditions: MDA-MB-231, 2 h at 37° C., antibody 1.5 μg/mL
Method: (§1) The endocytosis capacity of the antibody was detected for 0.5 to 2 hours. MDA-MB-231 and PC3 cells were subjected to digestion with 5 mM EDTA, and plated at 4×10^4 cells/well after cell counting. After adding an Fc blocker (Human TruStain FcX™, Biolegend, 422302) and blocking at room temperature for 10 mins, a test antibody (1.5 μg/mL) was added, and the mixture was incubated at 4° C. for 30 mins, centrifuged, and washed twice with PBS+2% FBS, then the cells were divided into four equal portions (labeled as 0 h, 0.5 h, 1 h, 2 h), cells labeled as 0.5 h, 1 h, 2 h time points were added to a cell culture medium at 200 µL/well, and cultured at 37° C. for 0.5 h, 1 h, 2 h, respectively. Cells at 0 h point were centrifuged to remove supernatant, a secondary antibody (PE anti-human IgG Fc Antibody, Biolegend, 410708) was added, and the mixture was incubated at 4° C. for 30 mins, centrifuged, and washed twice with PBS+2% FBS, and detection was performed using a flow cytometer. After incubation of cells labeled as 0.5 h, 1 h, and 2 h points at 37° C. was completed, a secondary antibody was added (in the same steps as those at 0 h point), Geo-MFI of the signal under the same voltage was collected as detection signal at 0 h, and antibody internalization rate was calculated according to the following equation: Internalization (%)=(Geo-MFI (0 h)-Geo-MFI (0.5, 1, 2 h))/Geo-MFI (0 h)×100%.

PC3 cells = assay: as above; assay type: cell-based, human; conditions: PC3, 2 h at 37° C., antibody 1.5 μg/mL
Method: as §1

B1: 1CP-065: anti-CDCP1 murine monoclonal antibody (hybridoma); VH SEQ ID NO: 269, VL SEQ ID NO: 319 (antibody, V domains shown)
VH: EVTLKESGAELVRPGALVKLSCKASGFNIKDYYMHWVKQRPEQGLEWIGWIDPENDNTIYDPKFQGKASITADTSSNTAYLQLSSLTSEDTAVYYCARFYGSYYYAMDYWGQGTTVTVSS
VL: DIVMTQSPKFMSTSVGDRVSITCKASQDVSTAVTWYQQKPGQSPKLLIYWASTRHTGVPDRFTGSGSGTDYTLTISSVQAEDLALYYCQQHYSTPYTFGGGTKLEIK
modifications: 1CP-065 heavy chain variable region; 1CP-065 light chain variable region
B1 was tested, and the “Internalization MDA-MB-231 (%) 2 h” value (MDA-MB-231 cells) was 52.89% and the “Internalization PC3 (%) 2 h” value (PC3 cells) was 68.71%.

B2: 1CP-064: anti-CDCP1 murine monoclonal antibody (hybridoma); VH SEQ ID NO: 267, VL SEQ ID NO: 317 (antibody, V domains shown)
VH: EVKLVESGPGILQPSQTLSLTCSFSGFSLSTSGMGVGWIRQPSGKGLEWLAHIWWDDVKRYNPALKSRLTISKDTSSSQVFLKIASVDTADTATYYCARMGGKVPWFAYWGQGTTVTVSS
VL: DVVMTQTPASLAVSLGQRATISCRASESVDSYGNSFMHWYQQKPGQPPKLLIYLASNLESGVPARFSGSGSRTDFTLTIDPVEADDAATYYCQQNNEDPWTFGGGTKLEIK
modifications: 1CP-064 heavy chain variable region; 1CP-064 light chain variable region
In the case of B2, the “Internalization MDA-MB-231 (%) 2 h” value (MDA-MB-231 cells) is reported as 93.43% and the “Internalization PC3 (%) 2 h” value (PC3 cells) is reported as 93.05%.

B3: 1CP-067: anti-CDCP1 murine monoclonal antibody (hybridoma); VH SEQ ID NO: 265, VL SEQ ID NO: 315 (antibody, V domains shown)
VH: EVQLKESGGGLVKPGGSLKLSCTASGFTFSVYGMSWVRQTPEKRLEWVATLSGGSNYTYYSDSVKGRFTISRDTGKNNLYLQMSSLSSDDTALYYCATEDGLIGTWGDYWGQGTTVTVSS
VL: DIVMTQAAFSNPVTLGTSASISCRSTKSLLHSNGITYLYWFLQKPGQSPQLLIYQMSNLASGVPDRFSSSGSGTDFTLRISRVEAEDVGVYYCAQNLELPFTFGGGTKLEIK
modifications: 1CP-067 heavy chain variable region; 1CP-067 light chain variable region
For B3, the “Internalization MDA-MB-231 (%) 2 h” value (MDA-MB-231 cells) was 69.09% and the “Internalization PC3 (%) 2 h” value (PC3 cells) was 72.66%.

B4: 1CP-069: anti-CDCP1 murine monoclonal antibody (hybridoma); VH SEQ ID NO: 266, VL SEQ ID NO: 316 (antibody, V domains shown)
VH: EVQLQQSGGGLVKPGGSLKLSCTASGFTFSVYGMSWVRQTPEKRLEWVATLSGGDNYTYYTDSVKGRFTISRDTAKNNLYLQMSSLRSEDTALYFCATEDGLIGTWGDYWGQGTTVTVSS
VL: DIVMTQAAFSNPVTLGTSASISCRSTKSLLHSNGITYLYWYLQKPGQSPQLLIYQMSNLASGVPDRFSSSGSGTDFTLRISRVEAEDVGVYYCAQNLELPFTFGGGTKLEIK
modifications: 1CP-069 heavy chain variable region; 1CP-069 light chain variable region
For B4, the “Internalization MDA-MB-231 (%) 2 h” value (MDA-MB-231 cells) was 73.58% and the “Internalization PC3 (%) 2 h” value (PC3 cells) was 73.92%.

B5: 1CP-066: anti-CDCP1 murine monoclonal antibody (hybridoma); VH SEQ ID NO: 268, VL SEQ ID NO: 318 (antibody, V domains shown)
VH: EVTLKESGPELKKPGETVKISCKASGYAFTKYGMNWVKQAPGKDLKFMGWINTYTGEATYADDFKGRFDFSLEASASTAFLRINNLKNEDTATYFCSRGDDYGTGGYVLFYWGQGTTVTVSS
VL: DIVMTQAAASLSVTVGETVTITCRASENIYNNLAWYQQQQGKSPQLLVYAATNLADGVPSRFSGSGSGTHYSLKINSLQSEDFGFYYCQHFWGTPPTFGGGTKLEIK
modifications: 1CP-066 heavy chain variable region; 1CP-066 light chain variable region
For B5, the “Internalization MDA-MB-231 (%) 2 h” value (MDA-MB-231 cells) was 55.57% and the “Internalization PC3 (%) 2 h” value (PC3 cells) was 33.21%.
